Values of other authors, collected in article PMC3589424.
pKd: −log10 of the molar value.

Target: CD47 (Homo sapiens) (UniProt Q08722)
Chain of UniProt Q08722 (Q08722 19-323): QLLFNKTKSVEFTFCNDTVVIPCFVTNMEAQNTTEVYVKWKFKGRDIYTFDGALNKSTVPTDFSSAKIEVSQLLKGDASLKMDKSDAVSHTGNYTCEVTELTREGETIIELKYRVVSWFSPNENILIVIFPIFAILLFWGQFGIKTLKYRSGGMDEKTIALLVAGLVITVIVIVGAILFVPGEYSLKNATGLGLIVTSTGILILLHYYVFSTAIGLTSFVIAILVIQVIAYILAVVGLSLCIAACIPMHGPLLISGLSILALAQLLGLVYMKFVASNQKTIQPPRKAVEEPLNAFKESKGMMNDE

pKd: 5.70
Substance: SIRPα (from UniProt P78324)
